Publication PMC5811534, “Neuropathic MORC2 mutations perturb GHKL ATPase dimerization dynamics and epigenetic silencing by multiple structural mechanisms” (Nature Communications, 2018)

Assays:
[1] = molecular target: the molecule itself; experiment: SEC-MALS; SEC-MALS with QELS, Superdex 200 (10/300), 293 K, gel filtration buffer (50 mM HEPES pH 7.5, 150 mM NaCl, 2 mM MgCl2, 0.25 mM TCEP); no nucleotide added; WT at 40 µM, S87L at 7.5 µM; monomer to dimer
[2] = molecular target: the molecule itself; experiment: SEC-MALS; SEC-MALS with QELS, Superdex 200 (10/300), 293 K, gel filtration buffer; 2 mM Mg-AMPPNP added to the sample, 30 min on ice before injection; WT at 40 µM, T424R at 7.5 µM; monomer to dimer

Protein	stoichiometry N [1]	stoichiometry N [2]
MORC2(1–603) S87L (domain or fragment, human, UniProt Q9Y6X9-1 1-603, looked up, also called S87L variant; source: Sf9 insect cells (baculovirus), purified as for wild type; not shown: tandem StrepII, N-terminal, cleaved) MAFTNYSSLNRAQLTFEYLHTNSTTHEFLFGALAELVDNARDADATRIDIYAERREDLRGGFMLCFLDDGAGMDPSDAASVIQFGKLAKRTPESTQIGQYGNGLKSGSMRIGKDFILFTKKEDTMTCLFLSRTFHEEEGIDEVIVPLPTWNARTREPVTDNVEKFAIETELIYKYSPFRTEEEVMTQFMKIPGDSGTLVIIFNLKLMDNGEPELDIISNPRDIQMAETSPEGTKPERRSFRAYAAVLYIDPRMRIFIHGHKVQTKRLSCCLYKPRMYKYTSSRFKTRAEQEVKKAEHVARIAEEKAREAESKARTLEVRLGGDLTRDSRVMLRQVQNRAITLRREADVKKRIKEAKQRALKEPKELNFVFGVNIEHRDLDGMFIYNCSRLIKMYEKVGPQLEGGMACGGVVGVVDVPYLVLEPTHNKQDFADAKEYRHLLRAMGEHLAQYWKDIAIAQRGIIKFWDEFGYLSANWNQPPSSELRYKRRRAMEIPTTIQCDLCLKWRTLPFQLSSVEKDYPDTWVCSMNPDPEQDRCEASEQKQKVPLGTFRKDMKTQEEKQKQLTEKIRQQQEKLEALQKTTPIRSQADLKKLPLEVTTRPST	2	
MORC2(1–603) T424R (domain or fragment, human, UniProt Q9Y6X9-1 1-603, looked up, also called T424R variant; source: Sf9 insect cells (baculovirus), purified as for wild type; not shown: tandem StrepII, N-terminal, cleaved) MAFTNYSSLNRAQLTFEYLHTNSTTHEFLFGALAELVDNARDADATRIDIYAERREDLRGGFMLCFLDDGAGMDPSDAASVIQFGKSAKRTPESTQIGQYGNGLKSGSMRIGKDFILFTKKEDTMTCLFLSRTFHEEEGIDEVIVPLPTWNARTREPVTDNVEKFAIETELIYKYSPFRTEEEVMTQFMKIPGDSGTLVIIFNLKLMDNGEPELDIISNPRDIQMAETSPEGTKPERRSFRAYAAVLYIDPRMRIFIHGHKVQTKRLSCCLYKPRMYKYTSSRFKTRAEQEVKKAEHVARIAEEKAREAESKARTLEVRLGGDLTRDSRVMLRQVQNRAITLRREADVKKRIKEAKQRALKEPKELNFVFGVNIEHRDLDGMFIYNCSRLIKMYEKVGPQLEGGMACGGVVGVVDVPYLVLEPRHNKQDFADAKEYRHLLRAMGEHLAQYWKDIAIAQRGIIKFWDEFGYLSANWNQPPSSELRYKRRRAMEIPTTIQCDLCLKWRTLPFQLSSVEKDYPDTWVCSMNPDPEQDRCEASEQKQKVPLGTFRKDMKTQEEKQKQLTEKIRQQQEKLEALQKTTPIRSQADLKKLPLEVTTRPST		2
